This is an account of results in paper PMC7319273 (Science (New York, N.y.), 2020).

Test [1] concerns the target T1, SARS-CoV-2 Spike protein extracellular domain (S-ECD), as used in ELISA and BLI (SARS-CoV-2, Wuhan-Hu-1 (P0DTC2)). Nature of the test: BLI. As to conditions: both partners purified.
Test [2] deals with T1, SARS-CoV-2 Spike protein extracellular …. Description: cell-based or functional assay.

Bounds are passed on as bounds.

B1: 2M-10B11 (human monoclonal antibody) (antibody, V domains shown)
VH: EVQLVESGGGLVQPGGSLRLSCAASGFTVSSNYMSWVRQAPGKGLEWVSVIYSGGSTYYADSVKGRFTISRDNSKNTLYLQMNSLRAEDTAVYYCARATWLRGVMDVWGQGTTVTVSS
VL: QSALTQPHSVSESPGKTVTISCTGSSGSIASNYVQWYQQRPGSAPTTVIYEDNQRPSGVPDRFSGSIDSSSNSASLTISGLKTEDEADYYCQSYDSSNHWVFGGGTKLTVL
notes: ELISA group 2B; also called mAb 2M-10B11
As for B1, the equilibrium dissociation constant (Kd) (in general, a measure of binding affinity in units of concentration) in test [1] was less than 2.14 nM.

B2: 0304-3H3 (human monoclonal antibody) (antibody, V domains shown)
VH: EVQLVESGPGLVKPSETLSLTCTASGGSISTYYWSWIRQPPGKGLEWIGYIYYSGSTNYNPSLKSRVTISVDTSKNQFSLKLSSVTAADTAVYYCARDRIAPVGKFFGWYFDLWGRGTLVTVSS
VL: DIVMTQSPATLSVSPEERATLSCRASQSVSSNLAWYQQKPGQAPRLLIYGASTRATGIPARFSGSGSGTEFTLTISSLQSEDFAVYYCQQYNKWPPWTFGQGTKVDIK
notes: also called mAb 0304-3H3
In the case of B2, the “neutralization of authentic SARS-CoV-2 in Vero-E6 cells, EC50” value in test [2] worked out at 0.04 µg/mL. The molecule also showed a Kd in test [1] of less than 2.14 nM.

B3: 1M-1D2 (human monoclonal antibody) (antibody, V domains shown)
VH: QVQLVESGGGLVQPGGSLRLSCAASGFTFSSYAMHWVRQAPGKGLEYVSAISGNGGSTYYAKSVKGRFTISRDNSKNTLYLQMGSLRAEDMAVYYCARGAEYYDFWSGYYSAYFDYWGQGTLVTVSS
VL: QAVVTQPPSASGTPGQRVTISCSGSSSNIGSNYVYWYQQLPGTAPKLLIYNNNQRPSGVPDRFSGSKSGTSASLAISGLRSEDEADYYCAAWDDSLIYVLFGGGTKLTVL
B3: in test [2], the “neutralization of authentic SARS-CoV-2 in Vero-E6 cells, EC50” value turned out to be 28 µg/mL. Further, the Kd in test [1] was less than 2.14 nM.

B4: 9A1 (human monoclonal antibody) (antibody, V domains shown)
VH: EVQLLESGGGVVQPGRSLRLSCVVSGFTFNNYGMHWVRQAPGKGLEWVAVISYEGSVKYYGDHVDGRFTISRDPFKNTLYLHMNNLRPDDTAVYYCAKVSAIFWLGQGLSPIDVWGQGTTVTVSS
VL: DIVMTQSPATLSASPGERVTLSCRASQNIRNNLAWYQQKPGQAPRLLIHGASTRAAGAPARFSGSGSDTQFTLTVSSLQSEDFAVYYCHQYSKWPVTFGGGTKVDIK
notes: also called mAb 9A1
In the case of B4, the dissociation constant (Kd) in test [1] is less than 2.14 nM.
